In the supplement of paper PMC10567573:

B1: DCAF4 (parent)
chain: PGIDRPGMLCSFRIPGAWSCAWSL
B2: NCF4 (parent)
chain: FVKILKDFPEEDDPTNWLRCYYYE

Variants of: B1
Assay: protein stability index of a GFP-peptide fusion (GPS, HEK-293T) (PSI 1-6); higher = more stable
Details: c terminus: a fixed tail appended
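Also: lentivirally expressed fusions sorted by FACS into six bins by GFP to DsRed ratio, PSI derived from sequencing read proportions per bin multiplied by bin number.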

Variant | protein stability index
PGIDRPGMLCSFRIPGAWQCAWSL | 2.74
PGIDRPGMLCSFRIPGAWRCAWSL | 3.46
PGIDRPGMLCSFRIPGAWTCAWSL | 2.96
PGIDRPGMLCSFRIPGAWVCAWSL | 1.55
PGIDRPGMLCSFRIPGAWWCAWSL | 4.15
PGIDRPGMLCSFRIPGAWYCAWSL | 3.36
PGIDRPGMLCSFRIPGAWSDAWSL | 2.11
PGIDRPGMLCSFRIPGAWSEAWSL | 1.7
PGIDRPGMLCSFRIPGAWSFAWSL | 4.57
PGIDRPGMLCSFRIPGAWSGAWSL | 2.95
PGIDRPGMLCSFRIPGAWSHAWSL | 2.41
PGIDRPGMLCSFRIPGAWSIAWSL | 2.77
PGIDRPGMLCSFRIPGAWSKAWSL | 1.81
PGIDRPGMLCSFRIPGAWSLAWSL | 3.41
PGIDRPGMLCSFRIPGAWSMAWSL | 3.55
PGIDRPGMLCSFRIPGAWSNAWSL | 2.15
PGIDRPGMLCSFRIPGAWSPAWSL | 3.17
PGIDRPGMLCSFRIPGAWSQAWSL | 1.56
PGIDRPGMLCSFRIPGAWSRAWSL | 1.52
PGIDRPGMLCSFRIPGAWSSAWSL | 3.33
PGIDRPGMLCSFRIPGAWSTAWSL | 2.61
PGIDRPGMLCSFRIPGAWSVAWSL | 2.58

Variant | protein stability index
PGIDRPGMLCSFRIPGAWSWAWSL | 3.93
PGIDRPGMLCSFRIPGAWSCCWSL | 2.48
PGIDRPGMLCSFRIPGAWSCDWSL | 3.1
PGIDRPGMLCSFRIPGAWSCFWSL | 2.37
PGIDRPGMLCSFRIPGAWSCGWSL | 3.7
PGIDRPGMLCSFRIPGAWSCKWSL | 3.64
PGIDRPGMLCSFRIPGAWSCLWSL | 2.32
PGIDRPGMLCSFRIPGAWSCMWSL | 2.96
PGIDRPGMLCSFRIPGAWSCNWSL | 2.85
PGIDRPGMLCSFRIPGAWSCPWSL | 2.54
PGIDRPGMLCSFRIPGAWSCRWSL | 2.22
PGIDRPGMLCSFRIPGAWSCSWSL | 2.99
PGIDRPGMLCSFRIPGAWSCTWSL | 2.69
PGIDRPGMLCSFRIPGAWSCVWSL | 1.91
PGIDRPGMLCSFRIPGAWSCWWSL | 2.83
PGIDRPGMLCSFRIPGAWSCYWSL | 4.31
PGIDRPGMLCSFRIPGAWSCAASL | 2.54
PGIDRPGMLCSFRIPGAWSCACSL | 1.62
PGIDRPGMLCSFRIPGAWSCADSL | 1.5
PGIDRPGMLCSFRIPGAWSCAESL | 2.01
PGIDRPGMLCSFRIPGAWSCAFSL | 2.7
PGIDRPGMLCSFRIPGAWSCAGSL | 1.95

Variant | protein stability index
PGIDRPGMLCSFRIPGAWSCAHSL | 1.74
PGIDRPGMLCSFRIPGAWSCAISL | 3.25
PGIDRPGMLCSFRIPGAWSCAKSL | 1.84
PGIDRPGMLCSFRIPGAWSCALSL | 2.58
PGIDRPGMLCSFRIPGAWSCAMSL | 3.58
PGIDRPGMLCSFRIPGAWSCANSL | 1.6
PGIDRPGMLCSFRIPGAWSCAPSL | 1.19
PGIDRPGMLCSFRIPGAWSCAQSL | 3.24
PGIDRPGMLCSFRIPGAWSCARSL | 2.27
PGIDRPGMLCSFRIPGAWSCASSL | 1.33
PGIDRPGMLCSFRIPGAWSCATSL | 1.95
PGIDRPGMLCSFRIPGAWSCAVSL | 1.44
PGIDRPGMLCSFRIPGAWSCAWAL | 2.91
PGIDRPGMLCSFRIPGAWSCAWCL | 1.89
PGIDRPGMLCSFRIPGAWSCAWDL | 2.39
PGIDRPGMLCSFRIPGAWSCAWEL | 3.03
PGIDRPGMLCSFRIPGAWSCAWFL | 2
PGIDRPGMLCSFRIPGAWSCAWGL | 3.64
PGIDRPGMLCSFRIPGAWSCAWIL | 1.75
PGIDRPGMLCSFRIPGAWSCAWKL | 2.47
PGIDRPGMLCSFRIPGAWSCAWLL | 3.01
PGIDRPGMLCSFRIPGAWSCAWNL | 2.36

Variant | protein stability index
PGIDRPGMLCSFRIPGAWSCAWPL | 2.55
PGIDRPGMLCSFRIPGAWSCAWQL | 3.24
PGIDRPGMLCSFRIPGAWSCAWTL | 2.5
PGIDRPGMLCSFRIPGAWSCAWVL | 2.27
PGIDRPGMLCSFRIPGAWSCAWWL | 2.88
PGIDRPGMLCSFRIPGAWSCAWYL | 3.52
PGIDRPGMLCSFRIPGAWSCAWSA | 3.62
PGIDRPGMLCSFRIPGAWSCAWSD | 2.85
PGIDRPGMLCSFRIPGAWSCAWSE | 1.38
PGIDRPGMLCSFRIPGAWSCAWSF | 3.21
PGIDRPGMLCSFRIPGAWSCAWSH | 2.96
PGIDRPGMLCSFRIPGAWSCAWSI | 2.42
PGIDRPGMLCSFRIPGAWSCAWSK | 2.42
PGIDRPGMLCSFRIPGAWSCAWSN | 2.87
PGIDRPGMLCSFRIPGAWSCAWSP | 2.03
PGIDRPGMLCSFRIPGAWSCAWSQ | 1.31
PGIDRPGMLCSFRIPGAWSCAWSR | 1.47
PGIDRPGMLCSFRIPGAWSCAWSS | 2.15
PGIDRPGMLCSFRIPGAWSCAWST | 3.74
PGIDRPGMLCSFRIPGAWSCAWSV | 2.71
PGIDRPGMLCSFRIPGAWSCAWSW | 3.59
PGIDRPGMLCSFRIPGAWSCAWSY | 1.96

Variants of: B2
Assay: as above
Details: c terminus: a fixed tail appended

Variant | protein stability index
AVKILKDFPEEDDPTNWLRCYYYE | 1.99
CVKILKDFPEEDDPTNWLRCYYYE | 1.46
HVKILKDFPEEDDPTNWLRCYYYE | 2.7
IVKILKDFPEEDDPTNWLRCYYYE | 2.09
KVKILKDFPEEDDPTNWLRCYYYE | 2.68
LVKILKDFPEEDDPTNWLRCYYYE | 2.17
